From patent US20160032013A1 (Genentech, published 2016) come the findings set out here.

For assay [1], the target named is T1, Mouse RON on cells (3T3-mRON cells; mouse colon and skin) (mouse, UniProt Q62190 24-1378).
T1 sequence: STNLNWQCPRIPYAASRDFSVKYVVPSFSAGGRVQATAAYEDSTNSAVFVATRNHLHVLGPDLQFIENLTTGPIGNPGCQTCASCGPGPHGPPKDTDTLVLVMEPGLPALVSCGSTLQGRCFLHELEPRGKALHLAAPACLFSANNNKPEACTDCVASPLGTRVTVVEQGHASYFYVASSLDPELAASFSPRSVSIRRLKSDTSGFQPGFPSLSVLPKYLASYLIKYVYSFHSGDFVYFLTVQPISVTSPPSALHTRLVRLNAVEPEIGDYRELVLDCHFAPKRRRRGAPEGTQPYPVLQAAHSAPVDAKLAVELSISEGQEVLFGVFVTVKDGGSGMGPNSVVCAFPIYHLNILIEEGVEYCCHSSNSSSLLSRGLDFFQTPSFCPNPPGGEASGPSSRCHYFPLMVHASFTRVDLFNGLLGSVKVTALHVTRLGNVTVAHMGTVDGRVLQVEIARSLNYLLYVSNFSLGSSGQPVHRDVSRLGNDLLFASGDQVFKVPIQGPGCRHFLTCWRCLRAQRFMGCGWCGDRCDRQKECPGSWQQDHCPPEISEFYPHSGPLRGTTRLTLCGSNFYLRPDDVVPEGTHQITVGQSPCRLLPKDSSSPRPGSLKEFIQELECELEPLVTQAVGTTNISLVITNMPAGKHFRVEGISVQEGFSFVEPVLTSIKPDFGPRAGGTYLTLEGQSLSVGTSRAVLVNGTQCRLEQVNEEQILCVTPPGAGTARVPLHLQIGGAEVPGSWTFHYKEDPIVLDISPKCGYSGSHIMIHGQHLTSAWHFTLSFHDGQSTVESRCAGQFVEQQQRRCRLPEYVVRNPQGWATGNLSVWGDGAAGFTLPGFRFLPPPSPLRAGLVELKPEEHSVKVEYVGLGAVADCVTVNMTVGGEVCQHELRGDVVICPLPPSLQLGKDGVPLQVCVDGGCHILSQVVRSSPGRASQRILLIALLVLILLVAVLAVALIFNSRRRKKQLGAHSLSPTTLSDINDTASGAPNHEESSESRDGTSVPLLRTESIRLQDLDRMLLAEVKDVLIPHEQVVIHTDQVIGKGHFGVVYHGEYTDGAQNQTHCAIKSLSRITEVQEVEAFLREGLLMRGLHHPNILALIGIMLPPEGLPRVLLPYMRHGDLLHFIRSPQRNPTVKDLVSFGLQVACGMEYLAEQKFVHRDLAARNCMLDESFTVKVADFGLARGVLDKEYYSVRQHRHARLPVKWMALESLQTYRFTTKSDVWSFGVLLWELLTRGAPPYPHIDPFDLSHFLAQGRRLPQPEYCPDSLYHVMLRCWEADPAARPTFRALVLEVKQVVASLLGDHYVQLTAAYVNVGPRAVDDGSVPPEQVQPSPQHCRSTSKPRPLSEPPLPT
The experiment in a line: cell-based or functional assay.

Assay [2] addresses T1, Mouse RON on cells (3T3-mRON cells; …). Description: flow cytometry on 3T3-mRON cells.
Assay [3] addresses T2, Mouse RON-hIgG1 Fc (murine RON Sema/PSI/IPT1, natural leader + R33-V684, fused to human IgG1 Fc) (mouse).
T2 construct: also called mRON-hFc; murine RON-Fc
The experiment in a line: SPR (Biacore), anti-Fc chip; legend names murine RON-Fc; the sheet's scheme ('RON or MSP' over 'MSP-Fc or RON-Fc') and have the MSPβ-Fc fusion captured and soluble RON-His injected. The method, then: (§1) Binding kinetics of RON to MSP β-Fc fusion proteins and MSP proteins to RON-Fc fusions were determined using a Biacore 3000 optical biosensor equipped with a research-grade CM5 sensor chip (GE Healthcare). Amine coupling reagents, N-ethyl-N′-dimethylamino-propylcarbodiimide (EDC), N-hydroxy-succinimide (NHS) and sodium ethanolamine HCl, pH 8.5, were obtained from GE Healthcare. Standard coupling protocols were used to tether a rabbit anti-human IgG1 or rabbit anti-murine IgG2a (Jackson ImmunoResearch Laboratories) onto the biosensor surface. A biosensor chip that was subjected to the amine coupling procedure with no protein coupled was used to correct for non-specific binding. […] Various concentrations (500-3.9 nM, 2-fold dilution series) of RON-His, were injected in HBS-P buffer (10 mM HEPES, pH 7.5, 150 mM NaCl, 0.005% P20) at 25° C. with a flow rate of 30 μL/min and dissociation monitored for 240 sec. Between measurements, the biosensor surfaces were regenerated with a 120 s pulse of 10 mM glycine-HCl pH 1.5 followed by a 120 s wash with running buffer.
Background: In SPR one partner is held on a chip, and binding of the other changes the refractive index at the surface.

The target in assay [4] is T2, Mouse RON-hIgG1 Fc (murine RON …). The experiment in a line: SPR (Biacore), anti-Fc chip, murine RON-Fc captured and MSP protein injected; table headed 'Similar High Affinities for Murine RON'. The method, then: as §1
To function as a RON agonist, MSPβ-IgG2a fusion proteins must bind the RON receptor. To assay binding, surface plasmon resonance was used to measure the affinity of full-length human MSP, human and mouse MSP β, and a number of human and mouse MSPβ-IgG2a fusions for immobilized RON receptor. […]

B1: Mouse MSP β-L16-mIgG2a Fc (Fc fusion)
chain: VVGGHPGNSPWTVSLRNRQGQHFCGGSLVKEQWVLTARQCIWSCHEPLTGYEVWLGTINQNPQPGEANLQRVPVAKAVCGPAGSQLVLLKLERPVILNHHVALIALPPEQYVVPPGTKCEIAGWGESIGTSNNTVLHVASMNVISNQECNTKYRGHIQESEICTQGLVVPVGACEGDYGGPLACYTHDAWVLQGLIIPNRVCARPRWPAIFTRVSVFVDWINKVMQLEQVTDKKIEPRGPTIKPCPPCKCPAPNLLGGPSVFIFPPKIKDVLMISLSPIVTCVVVDVSEDDPDVQISWFVNNVEVHTAQTQTHREDYNSTLRVVSALPIQHQDWMSGKEFKCKVNNKDLPAPIERTISKPKGSVRAPQVYVLPPPEEEMTKKQVTLTCMVTDFMPEDIYVEWTNNGKTELNYKNTEPVLDSDGSYFMYSKLRVEKKNWVERNSYSCSVVHEGLHNHHTTKSFSRTPGK
notes: also called m16m
Turning to B1, the “fold increase in Akt phosphorylation, MSD, colon of injected mice” value (“fold increase in Akt phosphorylation” for short) in assay [1] was ~2.5 fold. For the same molecule, the “EC50 (read off the curve)” value in assay [2] was ~0.05 µg/mL. In addition, the Kd in assay [3] was determined as 8.4 nM.

B2: Hexahistidine-tagged murine MSP β (HGF leader + V489-E716 + C593A + C677A + His tag) (ligand)
chain: VVGGHPGNSPWTVSLRNRQGQHFCGGSLVKEQWVLTARQCIWSCHEPLTGYEVWLGTINQNPQPGEANLQRVPVAKAVCGPAGSQLVLLKLERPVILNHHVALIALPPEQYVVPPGTKCEIAGWGESIGTSNNTVLHVASMNVISNQECNTKYRGHIQESEICTQGLVVPVGACEGDYGGPLACYTHDAWVLQGLIIPNRVCARPRWPAIFTRVSVFVDWINKVMLEHHHHHHH
notes: also called Mouse MSP β
As to B2, the Kd in assay [4] is 6.4 nM.

B3: Mouse MSP β-L4-mIgG2a Fc (Fc fusion)
chain: VVGGHPGNSPWTVSLRNRQGQHFCGGSLVKEQWVLTARQCIWSCHEPLTGYEVWLGTINQNPQPGEANLQRVPVAKAVCGPAGSQLVLLKLERPVILNHHVALIALPPEQYVVPPGTKCEIAGWGESIGTSNNTVLHVASMNVISNQECNTKYRGHIQESEICTQGLVVPVGACEGDYGGPLACYTHDAWVLQGLIIPNRVCARPRWPAIFTRVSVFVDWINKVMQLETIKPCPPCKCPAPNLLGGPSVFIFPPKIKDVLMISLSPIVTCVVVDVSEDDPDVQISWFVNNVEVHTAQTQTHREDYNSTLRVVSALPIQHQDWMSGKEFKCKVNNKDLPAPIERTISKPKGSVRAPQVYVLPPPEEEMTKKQVTLTCMVTDFMPEDIYVEWTNNGKTELNYKNTEPVLDSDGSYFMYSKLRVEKKNWVERNSYSCSVVHEGLHNHHTTKSFSRTPGK
notes: also called m4m
In the case of B3, the “fold increase in Akt phosphorylation” value in assay [1] is ~2.6 fold. Also, the Kd in assay [3] amounted to 8.3 nM.

B4: Mouse MSP β-L12-mIgG2a Fc (Fc fusion)
chain: VVGGHPGNSPWTVSLRNRQGQHFCGGSLVKEQWVLTARQCIWSCHEPLTGYEVWLGTINQNPQPGEANLQRVPVAKAVCGPAGSQLVLLKLERPVILNHHVALIALPPEQYVVPPGTKCEIAGWGESIGTSNNTVLHVASMNVISNQECNTKYRGHIQESEICTQGLVVPVGACEGDYGGPLACYTHDAWVLQGLIIPNRVCARPRWPAIFTRVSVFVDWINKVMQLEKKIEPRGPTIKPCPPCKCPAPNLLGGPSVFIFPPKIKDVLMISLSPIVTCVVVDVSEDDPDVQISWFVNNVEVHTAQTQTHREDYNSTLRVVSALPIQHQDWMSGKEFKCKVNNKDLPAPIERTISKPKGSVRAPQVYVLPPPEEEMTKKQVTLTCMVTDFMPEDIYVEWTNNGKTELNYKNTEPVLDSDGSYFMYSKLRVEKKNWVERNSYSCSVVHEGLHNHHTTKSFSRTPGK
notes: also called m12m; mMSPβ-L12-mIgG2a
In the case of B4, the “fold increase in Akt phosphorylation” value in assay [1] is ~2.3 fold. The “EC50 (read off the curve)” value in assay [2] is ~0.05 µg/mL. Also, the Kd in assay [3] stood at 10.4 nM.

B5: Mouse MSP β-L8-mIgG2a Fc (Fc fusion)
chain: VVGGHPGNSPWTVSLRNRQGQHFCGGSLVKEQWVLTARQCIWSCHEPLTGYEVWLGTINQNPQPGEANLQRVPVAKAVCGPAGSQLVLLKLERPVILNHHVALIALPPEQYVVPPGTKCEIAGWGESIGTSNNTVLHVASMNVISNQECNTKYRGHIQESEICTQGLVVPVGACEGDYGGPLACYTHDAWVLQGLIIPNRVCARPRWPAIFTRVSVFVDWINKVMQLEPRGPTIKPCPPCKCPAPNLLGGPSVFIFPPKIKDVLMISLSPIVTCVVVDVSEDDPDVQISWFVNNVEVHTAQTQTHREDYNSTLRVVSALPIQHQDWMSGKEFKCKVNNKDLPAPIERTISKPKGSVRAPQVYVLPPPEEEMTKKQVTLTCMVTDFMPEDIYVEWTNNGKTELNYKNTEPVLDSDGSYFMYSKLRVEKKNWVERNSYSCSVVHEGLHNHHTTKSFSRTPGK
notes: also called m8m
On to B5, for which the “fold increase in Akt phosphorylation” value in assay [1] is ~2 fold. The “EC50 (read off the curve)” value in assay [2] is ~0.05 µg/mL. In addition, the Kd in assay [3] is 8.5 nM.

As usually defined, the EC50 (read off the curve) is the concentration that produces a half-maximal response. Low values mean greater potency, high ones weaker potency. One may read the Kd as the free concentration of one partner at which half of the binding sites on the other are occupied at equilibrium, for simple one-to-one binding.
